Paper PMC11359169, “[…] CLOCK-ASSOCIATED1 Delays Flowering by Directly Inhibiting the Transcription of BcSOC1 in Pak-choi”

Experiments:
[1] = biological target: BcCCA1 (Brassica campestris (syn. Brassica …, UniProt F5B4H3 1-554)); assay: EMSA; cold probe competition 10x, 100x, 250x; Chemiluminescent EMSA kit (Beyotime); buffer, salt, pH and temperature not stated; details: protein: recombinant; tags: His (pCold-His); label: biotin (5' and 3' ends per Methods); blunt
[2] = biological target: BcFLC (Brassica campestris (syn. Brassica …, UniProt A4L9R7 1-196)); assay: as above; details: protein: recombinant; tags: GST (pGEX-4T-1); chain copies: 2; label: biotin (5' and 3' ends per Methods); blunt
Sequence of BcFLC (Brassica campestris (A4L9R7 entry or part of it): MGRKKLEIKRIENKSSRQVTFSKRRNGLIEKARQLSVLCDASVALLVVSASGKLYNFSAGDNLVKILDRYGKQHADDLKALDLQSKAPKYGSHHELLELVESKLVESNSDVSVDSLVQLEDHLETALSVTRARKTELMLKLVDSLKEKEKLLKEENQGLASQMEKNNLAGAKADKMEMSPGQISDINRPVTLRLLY

Sequence of BcCCA1 (Brassica campestris (F5B4H3 entry or part of it): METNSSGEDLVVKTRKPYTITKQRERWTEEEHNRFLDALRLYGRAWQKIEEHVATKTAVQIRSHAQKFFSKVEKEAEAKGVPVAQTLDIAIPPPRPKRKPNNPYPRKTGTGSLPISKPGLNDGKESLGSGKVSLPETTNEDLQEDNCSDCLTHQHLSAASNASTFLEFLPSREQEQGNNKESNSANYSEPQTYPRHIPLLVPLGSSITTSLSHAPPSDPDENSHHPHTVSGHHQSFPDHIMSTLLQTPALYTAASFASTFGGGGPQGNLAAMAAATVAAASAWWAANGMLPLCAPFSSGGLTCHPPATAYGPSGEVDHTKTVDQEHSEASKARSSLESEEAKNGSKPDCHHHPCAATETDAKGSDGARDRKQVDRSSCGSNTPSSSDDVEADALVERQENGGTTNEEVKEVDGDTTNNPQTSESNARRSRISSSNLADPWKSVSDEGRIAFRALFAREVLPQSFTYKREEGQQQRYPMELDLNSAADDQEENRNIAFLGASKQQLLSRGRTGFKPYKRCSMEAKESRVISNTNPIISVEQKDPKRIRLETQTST

Binder	binding result [1]	binding result [2]
MBS probe (BcSOC1 promoter) (dsDNA) DNA 1: TCCCCGTCAACGTATGTTGA DNA 2: TCAACATACGTTGACGGGGA	binds	
GATA probe (BcSOC1 promoter) (dsDNA) DNA 1: GTAAAGGATGAGGTTTCAAG DNA 2: CTTGAAACCTCATCCTTTAC		binds
